Biological target: CD47 (UniProt Q08722)
Assay: cell-based or functional assay

Chain of UniProt Q08722 (Q08722 19-323 limits assumed): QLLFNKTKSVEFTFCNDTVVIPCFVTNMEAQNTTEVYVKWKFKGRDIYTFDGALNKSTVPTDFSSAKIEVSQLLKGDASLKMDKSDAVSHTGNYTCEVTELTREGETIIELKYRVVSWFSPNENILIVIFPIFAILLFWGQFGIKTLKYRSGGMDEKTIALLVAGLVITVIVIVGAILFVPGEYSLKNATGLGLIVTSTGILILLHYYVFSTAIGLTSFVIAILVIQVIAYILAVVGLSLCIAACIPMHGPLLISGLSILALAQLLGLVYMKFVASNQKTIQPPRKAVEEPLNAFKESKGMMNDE

Specific Lysis (%) of target cells DLD1-CEA, 24 h, effector-target ratio 1:1: 45.2%
Substance: SIRPγ fusion protein SIRPγ-CD28TM-CD28 (receptor)

Source: patent publication US20230203125A1
